The values that follow come from US20190077875A1 (MorphoSys, published 2019).

This assay concerns the target T1, MOR202 (anti-CD38 antibody).
T1 construct: also called MOR03087
Put plainly: serum immunofixation electrophoresis (IFE) after pre-incubation of MOR202 (1200 µg/mL, saline or serum) with MOR09292-hAlb; anti-IgG or anti-lambda staining. As to the method: MOR202 at a constant concentration of 1200 μg/mL in saline (Lane 2-3) or serum (Lane 4-13) was pre-incubated with or without its idiotypic antibody MOR09292-hAlb at different ratios and the prepared samples were analyzed via IFE using anti-IgG staining (Lane 2-8) or anti-lambda staining (Lane 9-13). (Lane 2=MOR202; Lane 3=MOR202+MOR09292-hAlb at 2400 μg/mL; Lane 4=MOR202; Lane 5=MOR202+MOR09292-hAlb at 1200 μg/mL; Lane 6=MOR202+MOR09292-hAlb at 1800 μg/mL; Lane 7=MOR202+MOR09292-hAlb at 2400 μg/mL; Lane 8=MOR202+MOR09292-hAlb at 3600 μg/mL; Lane 9=MOR202; Lane 10=MOR202+MOR09292-hAlb at 1200 μg/mL; Lane 11=MOR202+MOR09292-hAlb at 1800 μg/mL; Lane 12=MOR202+MOR09292-hAlb at 2400 μg/mL; Lane 13=MOR202+MOR09292-hAlb at 3600 μg/mL; Lane 1=human serum from a healthy donor stained for total protein to evaluate general background signaling).
In order to differentiate between MOR202 related assay signals in IFE vs. endogenous M-protein spikes a method was tested pre-incubating a MOR202 containing sample with an MOR202 specific anti-idiotypic antibody (MOR09292). […] For evaluating if the migration distance is large enough to be detected samples containing MOR202 in saline were prepared and pre-incubated with or without MOR09292. […] Afterwards, the samples were analyzed and IFE gels were stained with anti-IgG or anti-lambda antisera. […]

T1 sequence (VH, as listed by the source, chain 1 of 2): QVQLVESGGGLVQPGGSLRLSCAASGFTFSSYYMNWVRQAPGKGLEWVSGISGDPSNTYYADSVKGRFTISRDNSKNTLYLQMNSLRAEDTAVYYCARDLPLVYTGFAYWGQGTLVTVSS
T1 sequence (VL, as listed by the source, chain 2 of 2): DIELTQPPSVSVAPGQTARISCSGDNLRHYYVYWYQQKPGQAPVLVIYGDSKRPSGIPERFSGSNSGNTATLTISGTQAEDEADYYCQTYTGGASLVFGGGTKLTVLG

B1: MOR09292-human albumin fusion (MOR09292-Fab fragment genetically fused to human albumin) (Fab)
heavy: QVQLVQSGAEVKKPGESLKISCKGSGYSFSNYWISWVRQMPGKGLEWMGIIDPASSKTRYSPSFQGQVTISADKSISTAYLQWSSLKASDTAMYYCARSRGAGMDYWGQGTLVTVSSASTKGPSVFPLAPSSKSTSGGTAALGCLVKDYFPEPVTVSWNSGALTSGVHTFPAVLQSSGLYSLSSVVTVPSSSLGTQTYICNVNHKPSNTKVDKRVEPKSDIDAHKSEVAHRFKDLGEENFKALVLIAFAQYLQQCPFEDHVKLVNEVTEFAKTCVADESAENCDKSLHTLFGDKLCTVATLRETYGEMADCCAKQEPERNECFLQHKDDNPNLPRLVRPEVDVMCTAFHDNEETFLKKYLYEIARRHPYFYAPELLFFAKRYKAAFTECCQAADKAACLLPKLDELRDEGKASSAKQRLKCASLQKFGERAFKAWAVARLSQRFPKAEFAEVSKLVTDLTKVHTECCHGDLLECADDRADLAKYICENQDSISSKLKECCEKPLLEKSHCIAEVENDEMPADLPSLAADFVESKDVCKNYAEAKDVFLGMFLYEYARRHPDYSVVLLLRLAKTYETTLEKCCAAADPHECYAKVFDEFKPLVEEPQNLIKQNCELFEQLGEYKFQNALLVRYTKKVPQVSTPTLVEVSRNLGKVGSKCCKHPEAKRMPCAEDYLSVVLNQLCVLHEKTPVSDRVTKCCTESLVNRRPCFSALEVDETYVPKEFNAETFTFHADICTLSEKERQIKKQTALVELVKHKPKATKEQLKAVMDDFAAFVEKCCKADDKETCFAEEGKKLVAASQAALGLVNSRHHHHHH
light: DIVLTQPPSVSGAPGQRVTISCTGSSSNIGAGYDVHWYQQLPGTAPKLLIYADNNRPSGVPDRFSGSKSGTSASLAITGLQSEDEADYYCGSYDESSNSMVFGGGTKLTVLGQPKAAPSVTLFPPSSEELQANKATLVCLISDFYPGAVTVAWKADSSPVKAGVETTTPSKQSNNKYAASSYLSLTPEQWKSHRSYSCQVTHEGSTVEKTVAPTECS
notes: Anti-idiotypic Fab to MOR202, fused to human albumin; also called MOR09292-hAlb; MOR09292-huAlb
For the molecule B1, the binding result was “binds”.
